Reference: patent US20260015316

Tested on: ONECUT2 (OC2) HOX domain
Assay: SPR
Conditions: OC2 HOX fragment; DNA probe sequence not given

Substance PEG10 promoter OC2 binding motif probe has a Kd of 1 nM.
